# *1 amine or outer side, *2 acyl side, *3 side chain or, on linkers, in order; H or OH if unused. [ ]: non-standard residue; d: D form. 3AzaPhe4AcPip = (S)-3-(6-(4-acetylpiperazin-1-yl)pyridin-3-yl)-2-aminopropanoic acid, CC(=O)N1CCN(c2ccc(C[C@H](N[*:1])C(=O)[*:2])cn2)CC1; Trp(4-Cl)(βS-Me) = C[C@@H](c1c[nH]c2cccc(Cl)c12)[C@H](N)C(=O)O; Ala(piperidin-4-yl) = O=C([C@H](CC1CCN([*:3])CC1)N[*:1])[*:2]; Pro(trans-4-NH2) = O=C([C@@H]1C[C@@H](N[*:3])CN1[*:1])[*:2]; Bip(4'-COOH) = N[C@@H](Cc1ccc(-c2ccc(C(=O)O)cc2)cc1)C(=O)O; Phe(3-CH2NH2) = O=C([C@H](Cc1cccc(CN[*:3])c1)N[*:1])[*:2]; 1Nal(3S-Me) = C[C@@H](c1cccc2ccccc12)[C@H](N)C(=O)O; Phe(4-COOH) = N[C@@H](Cc1ccc(C(=O)O)cc1)C(=O)O; Phe(3-NH2) = Nc1cccc(C[C@H](N)C(=O)O)c1; hTyr = N[C@@H](CCc1ccc(O)cc1)C(=O)O; dDab = NCC[C@@H](N)C(=O)O; Orn = NCCC[C@H](N)C(=O)O; dNMeA = CN[C@H](C)C(=O)O; Dap = NC[C@H](N)C(=O)O
# B1: SEQ ID NO: 42 (peptide)
# peptide: cyclo([Bip(4'-COOH)]W[Phe(4-COOH)]G[Pro(trans-4-NH2)][Trp(4-Cl)(βS-Me)]D[dNMeA]G[Bip(4'-COOH)]KL[dA][hTyr])
# SMILES: CC(C)C[C@@H]1NC(=O)[C@H](CCCCN)NC(=O)[C@H](Cc2ccc(-c3ccc(C(=O)O)cc3)cc2)NC(=O)CNC(=O)[C@@H](C)N(C)C(=O)[C@H](CC(=O)O)NC(=O)[C@H]([C@@H](C)c2c[nH]c3cccc(Cl)c23)NC(=O)[C@@H]2C[C@@H](N)CN2C(=O)CNC(=O)[C@H](Cc2ccc(C(=O)O)cc2)NC(=O)[C@H](Cc2c[nH]c3ccccc23)NC(=O)[C@H](Cc2ccc(-c3ccc(C(=O)O)cc3)cc2)NC(=O)[C@H](CCc2ccc(O)cc2)NC(=O)[C@@H](C)NC1=O
# B2: SEQ ID NO: 41 (peptide)
# peptide: cyclo([Bip(4'-COOH)]W[Phe(4-COOH)]G[Pro(trans-4-NH2)][Trp(4-Cl)(βS-Me)]D[dNMeA]G[Bip(4'-COOH)][Dap]S[dA][hTyr])
# SMILES: C[C@@H]1C(=O)NCC(=O)N[C@@H](Cc2ccc(-c3ccc(C(=O)O)cc3)cc2)C(=O)N[C@@H](CN)C(=O)N[C@@H](CO)C(=O)N[C@H](C)C(=O)N[C@@H](CCc2ccc(O)cc2)C(=O)N[C@@H](Cc2ccc(-c3ccc(C(=O)O)cc3)cc2)C(=O)N[C@@H](Cc2c[nH]c3ccccc23)C(=O)N[C@@H](Cc2ccc(C(=O)O)cc2)C(=O)NCC(=O)N2C[C@H](N)C[C@H]2C(=O)N[C@@H]([C@@H](C)c2c[nH]c3cccc(Cl)c23)C(=O)N[C@@H](CC(=O)O)C(=O)N1C
# B3: SEQ ID NO: 49 (peptide)
# peptide: cyclo([Bip(4'-COOH)]W[Phe(4-COOH)]G[Pro(trans-4-NH2)][Trp(4-Cl)(βS-Me)]D[dNMeA]G[Bip(4'-COOH)][Orn]S[dA][hTyr])
# SMILES: C[C@@H]1C(=O)NCC(=O)N[C@@H](Cc2ccc(-c3ccc(C(=O)O)cc3)cc2)C(=O)N[C@@H](CCCN)C(=O)N[C@@H](CO)C(=O)N[C@H](C)C(=O)N[C@@H](CCc2ccc(O)cc2)C(=O)N[C@@H](Cc2ccc(-c3ccc(C(=O)O)cc3)cc2)C(=O)N[C@@H](Cc2c[nH]c3ccccc23)C(=O)N[C@@H](Cc2ccc(C(=O)O)cc2)C(=O)NCC(=O)N2C[C@H](N)C[C@H]2C(=O)N[C@@H]([C@@H](C)c2c[nH]c3cccc(Cl)c23)C(=O)N[C@@H](CC(=O)O)C(=O)N1C
# B4: SEQ ID NO: 48 (peptide)
# peptide: cyclo([Bip(4'-COOH)]W[Phe(4-COOH)]G[Pro(trans-4-NH2)][Trp(4-Cl)(βS-Me)]D[dNMeA]G[Bip(4'-COOH)][Phe(3-CH2NH2)]S[dA][hTyr])
# SMILES: C[C@@H]1C(=O)NCC(=O)N[C@@H](Cc2ccc(-c3ccc(C(=O)O)cc3)cc2)C(=O)N[C@@H](Cc2cccc(CN)c2)C(=O)N[C@@H](CO)C(=O)N[C@H](C)C(=O)N[C@@H](CCc2ccc(O)cc2)C(=O)N[C@@H](Cc2ccc(-c3ccc(C(=O)O)cc3)cc2)C(=O)N[C@@H](Cc2c[nH]c3ccccc23)C(=O)N[C@@H](Cc2ccc(C(=O)O)cc2)C(=O)NCC(=O)N2C[C@H](N)C[C@H]2C(=O)N[C@@H]([C@@H](C)c2c[nH]c3cccc(Cl)c23)C(=O)N[C@@H](CC(=O)O)C(=O)N1C
# B5: SEQ ID NO: 46 (peptide)
# peptide: cyclo([Bip(4'-COOH)]W[Phe(4-COOH)]G[Pro(trans-4-NH2)][Trp(4-Cl)(βS-Me)]D[dNMeA]G[Bip(4'-COOH)]KS[dDab][hTyr])
# SMILES: C[C@@H]1C(=O)NCC(=O)N[C@@H](Cc2ccc(-c3ccc(C(=O)O)cc3)cc2)C(=O)N[C@@H](CCCCN)C(=O)N[C@@H](CO)C(=O)N[C@H](CCN)C(=O)N[C@@H](CCc2ccc(O)cc2)C(=O)N[C@@H](Cc2ccc(-c3ccc(C(=O)O)cc3)cc2)C(=O)N[C@@H](Cc2c[nH]c3ccccc23)C(=O)N[C@@H](Cc2ccc(C(=O)O)cc2)C(=O)NCC(=O)N2C[C@H](N)C[C@H]2C(=O)N[C@@H]([C@@H](C)c2c[nH]c3cccc(Cl)c23)C(=O)N[C@@H](CC(=O)O)C(=O)N1C
# B6: SEQ ID NO: 44 (peptide)
# peptide: cyclo([Bip(4'-COOH)]W[Phe(4-COOH)]G[Pro(trans-4-NH2)][Trp(4-Cl)(βS-Me)]D[dNMeA]G[Bip(4'-COOH)]KL[dS][hTyr])
# SMILES: CC(C)C[C@@H]1NC(=O)[C@H](CCCCN)NC(=O)[C@H](Cc2ccc(-c3ccc(C(=O)O)cc3)cc2)NC(=O)CNC(=O)[C@@H](C)N(C)C(=O)[C@H](CC(=O)O)NC(=O)[C@H]([C@@H](C)c2c[nH]c3cccc(Cl)c23)NC(=O)[C@@H]2C[C@@H](N)CN2C(=O)CNC(=O)[C@H](Cc2ccc(C(=O)O)cc2)NC(=O)[C@H](Cc2c[nH]c3ccccc23)NC(=O)[C@H](Cc2ccc(-c3ccc(C(=O)O)cc3)cc2)NC(=O)[C@H](CCc2ccc(O)cc2)NC(=O)[C@@H](CO)NC1=O
# B7: SEQ ID NO: 47 (peptide)
# peptide: cyclo([Bip(4'-COOH)]W[Phe(4-COOH)]G[Pro(trans-4-NH2)][Trp(4-Cl)(βS-Me)]D[dNMeA]G[Bip(4'-COOH)]KS[dS][hTyr])
# SMILES: C[C@@H]1C(=O)NCC(=O)N[C@@H](Cc2ccc(-c3ccc(C(=O)O)cc3)cc2)C(=O)N[C@@H](CCCCN)C(=O)N[C@@H](CO)C(=O)N[C@H](CO)C(=O)N[C@@H](CCc2ccc(O)cc2)C(=O)N[C@@H](Cc2ccc(-c3ccc(C(=O)O)cc3)cc2)C(=O)N[C@@H](Cc2c[nH]c3ccccc23)C(=O)N[C@@H](Cc2ccc(C(=O)O)cc2)C(=O)NCC(=O)N2C[C@H](N)C[C@H]2C(=O)N[C@@H]([C@@H](C)c2c[nH]c3cccc(Cl)c23)C(=O)N[C@@H](CC(=O)O)C(=O)N1C
# B8: SEQ ID NO: 40 (peptide)
# peptide: cyclo([Bip(4'-COOH)]W[Phe(4-COOH)]G[Pro(trans-4-NH2)][Trp(4-Cl)(βS-Me)]D[dNMeA]G[Bip(4'-COOH)][Ala(piperidin-4-yl)]S[dA][hTyr])
# SMILES: C[C@@H]1C(=O)NCC(=O)N[C@@H](Cc2ccc(-c3ccc(C(=O)O)cc3)cc2)C(=O)N[C@@H](CC2CCNCC2)C(=O)N[C@@H](CO)C(=O)N[C@H](C)C(=O)N[C@@H](CCc2ccc(O)cc2)C(=O)N[C@@H](Cc2ccc(-c3ccc(C(=O)O)cc3)cc2)C(=O)N[C@@H](Cc2c[nH]c3ccccc23)C(=O)N[C@@H](Cc2ccc(C(=O)O)cc2)C(=O)NCC(=O)N2C[C@H](N)C[C@H]2C(=O)N[C@@H]([C@@H](C)c2c[nH]c3cccc(Cl)c23)C(=O)N[C@@H](CC(=O)O)C(=O)N1C
# B9: SEQ ID NO: 45 (peptide)
# peptide: cyclo([Bip(4'-COOH)]W[Phe(4-COOH)]G[Pro(trans-4-NH2)][Trp(4-Cl)(βS-Me)]D[dNMeA]G[Bip(4'-COOH)]KS[dA][hTyr])
# SMILES: C[C@@H]1C(=O)NCC(=O)N[C@@H](Cc2ccc(-c3ccc(C(=O)O)cc3)cc2)C(=O)N[C@@H](CCCCN)C(=O)N[C@@H](CO)C(=O)N[C@H](C)C(=O)N[C@@H](CCc2ccc(O)cc2)C(=O)N[C@@H](Cc2ccc(-c3ccc(C(=O)O)cc3)cc2)C(=O)N[C@@H](Cc2c[nH]c3ccccc23)C(=O)N[C@@H](Cc2ccc(C(=O)O)cc2)C(=O)NCC(=O)N2C[C@H](N)C[C@H]2C(=O)N[C@@H]([C@@H](C)c2c[nH]c3cccc(Cl)c23)C(=O)N[C@@H](CC(=O)O)C(=O)N1C
# B10: SEQ ID NO: 5 (peptide)
# peptide: cyclo([3AzaPhe4AcPip]W[Phe(4-COOH)]G[Pro(trans-4-NH2)][1Nal(3S-Me)]D[dNMeA]G[Bip(4'-COOH)]W[Dap][dA][hTyr])
# SMILES: CC(=O)N1CCN(c2ccc(C[C@@H]3NC(=O)[C@H](CCc4ccc(O)cc4)NC(=O)[C@@H](C)NC(=O)[C@H](CN)NC(=O)[C@H](Cc4c[nH]c5ccccc45)NC(=O)[C@H](Cc4ccc(-c5ccc(C(=O)O)cc5)cc4)NC(=O)CNC(=O)[C@@H](C)N(C)C(=O)[C@H](CC(=O)O)NC(=O)[C@H]([C@@H](C)c4cccc5ccccc45)NC(=O)[C@@H]4C[C@@H](N)CN4C(=O)CNC(=O)[C@H](Cc4ccc(C(=O)O)cc4)NC(=O)[C@H](Cc4c[nH]c5ccccc45)NC3=O)cn2)CC1
# B11: SEQ ID NO: 50 (peptide)
# peptide: cyclo([Bip(4'-COOH)]W[Phe(4-COOH)]G[Pro(trans-4-NH2)][Trp(4-Cl)(βS-Me)]D[dNMeA]G[Bip(4'-COOH)][Phe(3-NH2)]S[dA][hTyr])
# SMILES: C[C@@H]1C(=O)NCC(=O)N[C@@H](Cc2ccc(-c3ccc(C(=O)O)cc3)cc2)C(=O)N[C@@H](Cc2cccc(N)c2)C(=O)N[C@@H](CO)C(=O)N[C@H](C)C(=O)N[C@@H](CCc2ccc(O)cc2)C(=O)N[C@@H](Cc2ccc(-c3ccc(C(=O)O)cc3)cc2)C(=O)N[C@@H](Cc2c[nH]c3ccccc23)C(=O)N[C@@H](Cc2ccc(C(=O)O)cc2)C(=O)NCC(=O)N2C[C@H](N)C[C@H]2C(=O)N[C@@H]([C@@H](C)c2c[nH]c3cccc(Cl)c23)C(=O)N[C@@H](CC(=O)O)C(=O)N1C
# B12: SEQ ID NO: 43 (peptide)
# peptide: cyclo([Bip(4'-COOH)]W[Phe(4-COOH)]G[Pro(trans-4-NH2)][Trp(4-Cl)(βS-Me)]D[dNMeA]G[Bip(4'-COOH)]KL[dDab][hTyr])
# SMILES: CC(C)C[C@@H]1NC(=O)[C@H](CCCCN)NC(=O)[C@H](Cc2ccc(-c3ccc(C(=O)O)cc3)cc2)NC(=O)CNC(=O)[C@@H](C)N(C)C(=O)[C@H](CC(=O)O)NC(=O)[C@H]([C@@H](C)c2c[nH]c3cccc(Cl)c23)NC(=O)[C@@H]2C[C@@H](N)CN2C(=O)CNC(=O)[C@H](Cc2ccc(C(=O)O)cc2)NC(=O)[C@H](Cc2c[nH]c3ccccc23)NC(=O)[C@H](Cc2ccc(-c3ccc(C(=O)O)cc3)cc2)NC(=O)[C@H](CCc2ccc(O)cc2)NC(=O)[C@@H](CCN)NC1=O
# Target: Recombinant human IL-1β (BioLegend 579404) (human, UniProt P01584 117-269)
# Assay: cell-based or functional assay
row,Binder,MRC5 IC50 [pM]
1,B1,627
2,B2,469
3,B3,402
4,B4,41
5,B5,134
6,B6,132
7,B7,124
8,B8,508
9,B9,174
10,B10,674
11,B11,520
12,B12,244

# Reference: patent US20230406885A1, “CYCLIC PEPTIDES FOR TRAPPING INTERLEUKIN-1 BETA” (MERCK SHARP & DOHME LLC, priority 2022, published 2023)
